Our source for the Kd values is publication PMC6441497.

In this data set the test system is Pho4 (yeast). Description: EMSA. The note with it: EMSA: 10 mM Tris-HCl pH 7.6, 1 mM MgCl2, 60 mM KCl, 3 mg/ml BSA, 1% glycerol, 1% Ficoll, 1 mM DTT, 1 ug poly(dI-dC), 100 ng calf thymus DNA, 20 ul, 10 min …. A general note: Mobility shift assays separate free from complexed probe on a gel.

Broadly, the Kd is the free concentration of one partner at which half of the binding sites on the other are occupied at equilibrium, for simple one-to-one binding. As to 601 free DNA with Pho4 site, the Kd was 240 nM.
